From publication PMC3267324 (Molecular Cell, 2011) come the findings set out here.

The target in assay [1] is T1, GST-tagged full-length PARI (human, UniProt Q9NWS1 1-579).
T1 sequence (looked up): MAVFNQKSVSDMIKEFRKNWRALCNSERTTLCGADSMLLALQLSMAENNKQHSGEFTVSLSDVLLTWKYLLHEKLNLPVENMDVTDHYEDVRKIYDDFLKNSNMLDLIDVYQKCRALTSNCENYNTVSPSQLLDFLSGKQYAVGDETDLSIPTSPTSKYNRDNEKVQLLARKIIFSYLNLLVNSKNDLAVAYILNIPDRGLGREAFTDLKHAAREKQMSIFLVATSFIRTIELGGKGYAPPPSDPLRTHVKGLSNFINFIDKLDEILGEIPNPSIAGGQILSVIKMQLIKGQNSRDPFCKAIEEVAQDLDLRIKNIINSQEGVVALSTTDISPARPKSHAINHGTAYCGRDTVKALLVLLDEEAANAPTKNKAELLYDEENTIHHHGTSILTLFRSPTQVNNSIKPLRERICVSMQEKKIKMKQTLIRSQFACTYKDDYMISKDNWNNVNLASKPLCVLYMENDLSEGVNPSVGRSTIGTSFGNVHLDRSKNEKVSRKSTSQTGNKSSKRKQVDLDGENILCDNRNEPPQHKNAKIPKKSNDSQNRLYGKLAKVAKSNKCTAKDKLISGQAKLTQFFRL
Kind of assay: pull-down.

In assay [2] the target is T2, Recombinant Flag-tagged PARI purified from insect cells (human, UniProt Q9NWS1 1-579).
T2 sequence (looked up): T1 sequence (looked up)
Kind of assay: pull-down.

B1: Recombinant human RAD51 expressed and purified from bacteria (natural protein, UniProt Q06609 1-339, looked up)
chain: MAMQMQLEANADTSVEEESFGPQPISRLEQCGINANDVKKLEEAGFHTVEAVAYAPKKELINIKGISEAKADKILAEAAKLVPMGFTTATEFHQRRSEIIQITTGSKELDKLLQGGIETGSITEMFGEFRTGKTQICHTLAVTCQLPIDRGGGEGKAMYIDTEGTFRPERLLAVAERYGLSGSDVLDNVAYARAFNTDHQTQLLYQASAMMVESRYALLIVDSATALYRTDYSGRGELSARQMHLARFLRMLLRLADEFGVAVVITNQVVAQVDGAAMFAADPKKPIGGNIIAHASTTRLYLRKGRGETRICKIYDSPCLPEAEAMFAINADGVGDAKD
B1: in assay [1], the binding result is listed as “binds”.

B2: GST-tagged human RAD51 (natural protein, UniProt Q06609 1-339, looked up)
chain: B1 chain
For B2, the binding result in assay [2] was “binds”.
